The text below walks through data of publication PMC8642242.

This assay concerns the target SARS-CoV-2 stabilized S trimer (HexaPro) (SARS-CoV-2).
WRAIR-2173 (human IgG1) (antibody) registered an IC50 of neutralization of SARS-CoV-2 (IL1/2020) pseudovirus (pSV assay) of 4 ng ml^−1.

WRAIR-2123 (human IgG1) (antibody) gave an IC50 of neutralization of SARS-CoV-2 (IL1/2020) pseudovirus (pSV assay) of 4 ng ml^−1.

WRAIR-2165 (human IgG1) (antibody) had an IC50 of neutralization of SARS-CoV-2 (IL1/2020) pseudovirus (pSV assay) of 10 ng ml^−1.
